From PMC10794598

What was measured:
[1] = molecular target: BY2-RBD (ER-retained receptor-binding domain of the SARS-CoV-2 S protein expressed stably in Nicotia (SARS-CoV-2) (UniProt P0DTC2)); assay: non-reducing PAGE Western blot
[2] = molecular target: NB-RBD (ER-retained receptor-binding domain of the SARS-CoV-2 S protein expressed transiently in N. benthamiana) (SARS-CoV-2) (UniProt P0DTC2); assay: non-reducing PAGE Western blot

Row | Substance | stoichiometry N [1] | stoichiometry N [2]
1 | BY2-RBD (ER-retained receptor-binding domain of the SARS-CoV-2 S protein expressed stably in Nicotia (from UniProt P0DTC2 319-541) (domain or fragment) | 4 | 
2 | NB-RBD (ER-retained receptor-binding domain of the SARS-CoV-2 S protein expressed transiently in N. benthamiana) (from UniProt P0DTC2 319-541) (domain or fragment) |  | 4
